Experimental findings from article doi:10.1101/2022.10.21.513149, “Time-resolved cryo-EM using a combination of droplet microfluidics with on-demand jetting” (bioRxiv, 2022) are described below.

Broadly, the stoichiometry N is the number of molecules, sites or subunits per partner or assembly.

Data set [1] deals with T1, GroEL (Escherichia coli MG1655, UniProt P0A6F5 1-548).
T1 construct: GroEL of Escherichia coli MG1655; synthetic construct based on the GroEL gene, in a pET-15b vector; also called GroEL-ATP; GroEL-(ADP); source: E. coli BL21, purified (ammonium sulfate cuts, Source Q15 anion exchange, Superose gel filtration); copies: 14
T1 sequence (P0A6F5 whole entry): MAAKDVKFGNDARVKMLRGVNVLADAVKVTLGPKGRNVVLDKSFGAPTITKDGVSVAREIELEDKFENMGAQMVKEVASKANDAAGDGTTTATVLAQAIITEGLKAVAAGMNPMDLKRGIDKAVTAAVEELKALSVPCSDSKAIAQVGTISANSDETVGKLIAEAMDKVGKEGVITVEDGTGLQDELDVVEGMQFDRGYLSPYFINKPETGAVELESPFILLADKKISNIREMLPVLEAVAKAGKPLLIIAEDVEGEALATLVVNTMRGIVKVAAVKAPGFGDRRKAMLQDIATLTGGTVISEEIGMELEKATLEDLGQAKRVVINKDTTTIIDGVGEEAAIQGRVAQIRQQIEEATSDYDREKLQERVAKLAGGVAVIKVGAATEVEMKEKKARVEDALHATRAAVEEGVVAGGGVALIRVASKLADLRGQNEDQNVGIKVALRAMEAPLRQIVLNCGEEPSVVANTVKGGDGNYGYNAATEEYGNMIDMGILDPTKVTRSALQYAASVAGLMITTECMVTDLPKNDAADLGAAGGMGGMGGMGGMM
Briefly: cryo-EM structure; steady state continuous turnover reference, conventional plunger at around 20 s after the start of the reaction; GroEL (3.7 mg/ml) mixed with GroES (0.7 mg/ml), ATP (2 mM), CHAPS (0.1 %); 22 °C; fractions of complexes from 3D classification of particles. The settings on record: both partners purified.

Data set [2] deals with the molecule itself. Described as above.

B1: GroES (natural protein, Escherichia coli MG1655, UniProt P0A6F9 1-97, looked up)
chain: MNIRPLHDRVIVKRKEVETKSAGGIVLTGSAAAKSTRGEVLAVGNGRILENGEVKPLDVKVGDIVIFNDGYGVKSEKIDNEEVLIMSESDILAIVEA
notes: GroES of Escherichia coli MG1655; synthetic construct based on the GroES gene, in a pET-15b vector; source: E. coli BL21, purified (Source Q15 anion exchange, Superdex 200 gel filtration)
Consider B1, for which the “stoichiometry N” value in data set [1] turned out to be 2. Further, in data set [2], the binding result is listed as “binds”.
